Our source for the stoichiometry N values is article PMC11187536.

Test [1] deals with soluble variant surface glycoprotein (sVSG) MITat1.2 (Trypanosoma brucei (endogenous in cell line 13-90)). The test can be described thus: SEC; Superdex 200 Increase 10/300 GL, 20 mM sodium acetate pH 5.2, 150 mM NaCl, 100 µl sample at 5 mg/ml, 1 ml/min; self-association, dimer. Background: Size exclusion chromatography separates by hydrodynamic size, large species first.
The target is the same in test [2]. The test can be described thus: SEC; Superdex 200 Increase 10/300 GL, 50 mM HEPES pH 7.4, 150 mM NaCl, 100 µl sample at 5 mg/ml, 1 ml/min; self-association, dimer.

As to “soluble variant surface glycoprotein (sVSG) MITat1.2 (natural protein)”, the stoichiometry N in test [1] and in test [2] was 2 each time.

As a reminder, the stoichiometry N is a count of units in the complex or per binding partner.
